From patent publication US20210198368A1 (Novartis, published 2021)

T1: human CLL1 expressed on cancer cell lines HL60 and U937 (human, UniProt Q5QGZ9 1-265)
T1 sequence (looked up): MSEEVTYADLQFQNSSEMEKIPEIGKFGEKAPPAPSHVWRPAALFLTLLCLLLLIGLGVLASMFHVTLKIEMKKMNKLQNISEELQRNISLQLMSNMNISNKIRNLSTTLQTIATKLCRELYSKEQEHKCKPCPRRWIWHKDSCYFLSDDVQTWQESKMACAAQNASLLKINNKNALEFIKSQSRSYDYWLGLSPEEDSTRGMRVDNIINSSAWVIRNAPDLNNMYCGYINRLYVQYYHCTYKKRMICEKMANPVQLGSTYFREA

T2: human CLL-1 Fc (human, UniProt Q5QGZ9 65-265, limits assumed)
T2 construct: Captured at 120 RU on an anti-Fc CM5 chip for Biacore; not shown: Fc part of the fusion (captured by an anti-Fc / anti-huFc antibody)
T2 sequence (looked up): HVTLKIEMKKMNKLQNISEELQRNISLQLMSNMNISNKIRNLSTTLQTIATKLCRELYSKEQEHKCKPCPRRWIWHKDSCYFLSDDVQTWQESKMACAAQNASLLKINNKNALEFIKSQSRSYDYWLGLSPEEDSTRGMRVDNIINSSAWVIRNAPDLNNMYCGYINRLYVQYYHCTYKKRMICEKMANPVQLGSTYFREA

T3: human CLL-1 (human, UniProt Q5QGZ9 65-265, limits assumed)
T3 construct: The construct is not described; also called C-type lectin-like molecule-1; MICL
T3 sequence (looked up): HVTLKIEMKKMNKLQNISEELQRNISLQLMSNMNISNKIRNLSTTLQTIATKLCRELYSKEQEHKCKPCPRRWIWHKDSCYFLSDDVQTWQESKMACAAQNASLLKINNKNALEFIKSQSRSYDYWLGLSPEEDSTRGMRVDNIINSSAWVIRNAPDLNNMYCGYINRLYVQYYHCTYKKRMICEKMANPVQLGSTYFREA


How the values were obtained:
[1] = molecular target: T1, human CLL1 expressed on cancer cell …; assay: cell-based or functional assay
human CLL-1 Fc = molecular target: T2, human CLL-1 Fc; assay: SPR (Biacore T200), human CLL-1 Fc captured on an anti-Fc CM5 chip, scFv as analyte, 1:1 binding fit
Experimental: Next, the affinity for human CLL-1 of a representative number of anti-CLL-1 scFvs was tested by Biacore. Briefly, anti-Fc antibody (Jackson ImmunoReasearch, catalog #109-005-098) was immobilized to a CM5 sensor chip via amine coupling, and human CLL-1 Fc was then captured at a density of 120 RU. ScFv samples were serial diluted 3-fold and injected over the chip at a constant flow rate. Association and dissociation rates of the protein complex were monitored for 270 s and 400 s, respectively. Double referencing was performed against an anti-huFc coated flow cell and a buffer blank and the data was fit using a 1:1 Langmuir or steady state affinity model with the Biacore T200 evaluation software. Binding of clones CLL-1-6, CLL-1-8, CLL-1-9, CLL-1-10, and CLL1-13 to human CLL-1 was confirmed.

human CLL-1 = molecular target: T3, human CLL-1; assay: ELISA and/or FACS of phage clones after panning on immobilized CLL-1

| Binder | EC50 (nM), Killing HL60 (T-cell mediated killing of the CLL1-positive cancer cell line) [1] | EC50 (nM), NFAT U937 (T-cell activation, Jurkat NFAT luciferase reporter assay) [1] | Kd (human CLL-1 Fc) | koff (human CLL-1 Fc) | kon (human CLL-1 Fc) | binding result (human CLL-1) |
| --- | --- | --- | --- | --- | --- | --- |
| CD3 × CLL1_12 (bispecific antibody) chain 1: QVQLVQSGGGVVQPGRSLRLSCKASGYTFTRYTMHWVRQAPGKGLEWIGYINPSRGYTNYNQKVKDRFTISRDNSKNTAFLQMDSLRPEDTGVYFCARYYDDHYSLDYWGQGTPVTVSSGGGGSGGGKSKKGGSGGGGSDIQMTQSPSSLSASVGDRVTITCSASSSVSYMNWYQQTPGKAPKRWIYDTSKLASGVPSRFSGSGSGTDYTFTISSLQPEDIATYYCQQWSSNPFTFGQGTKLQITGGGGSDKTHTCPPCPAPELLGGPSVFLFPPKPKDTLMISRTPEVTCVVVAVSHEDPEVKFNWYVDGVEVHNAKTKPREEQYNSTYRVVSVLTVLHQDWLNGKEYKCKVSNKALAAPIEKTISKAKGQPREPQVCTLPPSRDELTKNQVSLSCAVKGFYPSDIAVEWESNGQPENNYKTTPPVLDSDGSFFLVSKLTVDKSRWQQGNVFSCSVMHEALHNHYTQKSLSLSPGK chain 2: not shown | 0.2 nM | 0.63 nM | – | – | – | – |
| CD3 × CLL1_08 (bispecific antibody) chain 1: QVQLVQSGGGVVQPGRSLRLSCKASGYTFTRYTMHWVRQAPGKGLEWIGYINPSRGYTNYNQKVKDRFTISRDNSKNTAFLQMDSLRPEDTGVYFCARYYDDHYSLDYWGQGTPVTVSSGGGGSGGGKSKKGGSGGGGSDIQMTQSPSSLSASVGDRVTITCSASSSVSYMNWYQQTPGKAPKRWIYDTSKLASGVPSRFSGSGSGTDYTFTISSLQPEDIATYYCQQWSSNPFTFGQGTKLQITGGGGSDKTHTCPPCPAPELLGGPSVFLFPPKPKDTLMISRTPEVTCVVVAVSHEDPEVKFNWYVDGVEVHNAKTKPREEQYNSTYRVVSVLTVLHQDWLNGKEYKCKVSNKALAAPIEKTISKAKGQPREPQVCTLPPSRDELTKNQVSLSCAVKGFYPSDIAVEWESNGQPENNYKTTPPVLDSDGSFFLVSKLTVDKSRWQQGNVFSCSVMHEALHNHYTQKSLSLSPGK chain 2: QVQLVESGGGLVQPGGSLRLSCAASGFTFSSYWMSWVRQAPGKGLEWVANINEDGSAKFYVDSVKGRFTISRDNAKNSLYLQMNSLRAEDTAVYFCARDLRSGRYWGQGTLVTVSSGGGGSGGGGSGGGGSEIVLTQSPGTLSLSPGGRATLSCRASQSISGSFLAWYQQKPGQAPRLLIYGASSRATGIPDRFSGSGSGTDFTLTISRLEPEDFAVYYCQQYGSSPPTFGLGTKLEIKGGGGSGSDKTHTCPPCPAPELLGGPSVFLFPPKPKDTLMISRTPEVTCVVVAVSHEDPEVKFNWYVDGVEVHNAKTKPREEQYNSTYRVVSVLTVLHQDWLNGKEYKCKVSNKALAAPIEKTISKAKGQPREPQVYTLPPCRDELTKNQVSLWCLVKGFYPSDIAVEWESNGQPENNYKTTPPVLDSDGSFFLYSKLTVDKSRWQQGNVFSCSVMHEALHNHYTQKSLSLSPGK | 0.31 nM | 1.26 nM | – | – | – | – |
| CD3 × CLL1_10 (bispecific antibody) chain 1: QVQLVQSGGGVVQPGRSLRLSCKASGYTFTRYTMHWVRQAPGKGLEWIGYINPSRGYTNYNQKVKDRFTISRDNSKNTAFLQMDSLRPEDTGVYFCARYYDDHYSLDYWGQGTPVTVSSGGGGSGGGKSKKGGSGGGGSDIQMTQSPSSLSASVGDRVTITCSASSSVSYMNWYQQTPGKAPKRWIYDTSKLASGVPSRFSGSGSGTDYTFTISSLQPEDIATYYCQQWSSNPFTFGQGTKLQITGGGGSDKTHTCPPCPAPELLGGPSVFLFPPKPKDTLMISRTPEVTCVVVAVSHEDPEVKFNWYVDGVEVHNAKTKPREEQYNSTYRVVSVLTVLHQDWLNGKEYKCKVSNKALAAPIEKTISKAKGQPREPQVCTLPPSRDELTKNQVSLSCAVKGFYPSDIAVEWESNGQPENNYKTTPPVLDSDGSFFLVSKLTVDKSRWQQGNVFSCSVMHEALHNHYTQKSLSLSPGK chain 2: QVQLVQSGGGLVQPGGSLRLSCAASGFTFSSYSMNWVRQAPGKGLEWVSYISSSSSTIYYADSVKGRFTISRDNAKNSLYLQMNSLRAEDTAVYYCARDLSVRAIDAFDIWGQGTMVTVSSGGGGSGGGGSGGGGSGGGGSDIVLTQSPSSLSASVGDRVTITCQASQDISNYLNWYQQKPGKAPKLLIYDASNLETGVPSRFSGSGSGTDFTFTISSLQPEDFATYYCQQAYSTPFTFGPGTKVEIKGGGGSGSDKTHTCPPCPAPELLGGPSVFLFPPKPKDTLMISRTPEVTCVVVAVSHEDPEVKFNWYVDGVEVHNAKTKPREEQYNSTYRVVSVLTVLHQDWLNGKEYKCKVSNKALAAPIEKTISKAKGQPREPQVYTLPPCRDELTKNQVSLWCLVKGFYPSDIAVEWESNGQPENNYKTTPPVLDSDGSFFLYSKLTVDKSRWQQGNVFSCSVMHEALHNHYTQKSLSLSPGK | 0.27 nM | 0.85 nM | – | – | – | – |
| CLL-1-10 (scFv, Soluble scFv from HEK293F cells, purified on Ni-NTA; a tag is implied but not described; also called 146261) scFv: QVQLVQSGGGLVQPGGSLRLSCAASGFTFSSYSMNWVRQAPGKGLEWVSYISSSSSTIYYADSVKGRFTISRDNAKNSLYLQMNSLRAEDTAVYYCARDLSVRAIDAFDIWGQGTMVTVSSGGGGSGGGGSGGGGSGGGGSDIVLTQSPSSLSASVGDRVTITCQASQDISNYLNWYQQKPGKAPKLLIYDASNLETGVPSRFSGSGSGTDFTFTISSLQPEDFATYYCQQAYSTPFTFGPGTKVEIK | – | – | 15 nM | 0.00214 s⁻¹ | 142000 M⁻¹ s⁻¹ | – |
| CLL-1-9 (scFv, Soluble scFv from HEK293F cells, purified on Ni-NTA; a tag is implied but not described; also called 146259) scFv: QVQLVQSGAEVKEPGASVKVSCKAPANTFSDHVMHWVRQAPGQRFEWMGYIHAANGGTHYSQKFQDRVTITRDTSANTVYMDLSSLRSEDTAVYYCARGGYNSDAFDIWGQGTMVTVSSGGGGSGGGGSGGGGSGGGGSDIVMTQSPSSVSASVGDRVTITCRASQDISSWLAWYQQKPGKAPKLLIYAASSLQSGVPSRFNGSGSGTDFTLTISSLQPEDFATYYCQQSYSTPLTFGGGTKVEIK | – | – | 9.1 nM | 0.00128 s⁻¹ | 141000 M⁻¹ s⁻¹ | – |
| CLL-1-2 (scFv, Human scFv from phage display; also called 139116) scFv: EVQLVESGGGVVQPGGSLRLSCAASGFTFDDYAMHWVRQAPGKGLEWVSLISGDGGSTYYADSVKGRFTISRDNSKNTLYLQMNSLRVEDTAVYYCARVFDSYYMDVWGKGTTVTVSSGGGGSGGGGSGSGGSEIVLTQSPLSLPVTPGQPASISCRSSQSLVYTDGNTYLNWFQQRPGQSPRRLIYKVSNRDSGVPDRFSGSGSDTDFTLKISRVEAEDVGIYYCMQGTHWSFTFGQGTRLEIK | – | – | – | – | – | binds |
| CLL-1-13 (scFv, Soluble scFv from HEK293F cells, purified on Ni-NTA; a tag is implied but not described; also called 146264) scFv: QVQLVQSGAEVKKSGASVKVSCKASGYPFTGYYIQWVRQAPGQGLEWMGWIDPNSGNTGYAQKFQGRVTMTRNTSISTAYMELSSLRSEDTAVYYCASDSYGYYYGMDVWGQGTLVTVSSGGGGSGGGGSGGGGSGGGGSDIQMTQSPSSLSASVGDRVTFTCRASQGISSALAWYQQKPGKPPKLLIYDASSLESGVPSRFSGSGSGTDFTLTISSLQPEDFATYYCQQFNNYPLTFGGGTKVEIK | – | – | 46.1 nM | 0.00119 s⁻¹ | 25700 M⁻¹ s⁻¹ | – |
| CLL-1-1 (scFv, Human scFv from phage display (VH-linker-VL); For Biacore it was made as soluble scFv in HEK293F cells and purified on Ni-NTA beads; a tag is implied but not described; also called 139115) scFv: EVQLQQSGAEVKKPGSSVKVSCKASGGTFSSYAISWVRQAPGQGLEWMGGIIPIFGTANYAQKFQGRVTITADESTSTAYMELSSLRSEDTAVYYCARDLEMATIMGGYWGQGTLVTVSSGGGGSGGGGSGGGGSQSALTQPASVSGSPGQSITISCTGTSSDVGGYNYVSWYQQHPGKAPKLMIYDVSNRPSGVSNRFSGSKSGNTASLTISGLQAEDEADYYCSSYTSSSTLDVVFGGGTKLTVL | – | – | – | – | – | binds |
